Test results: patent US20040077031A1, “Novel methionine aminopeptidase-2 and uses thereof” (priority 2002, published 2004)

Assays:
Test in all cases: Kinetic constants of MetAP2 with Mn2+ on peptide substrates (chromogenic assay)
Assay type in all cases: biochemical, human
Conditions in all cases: other: MetAP2 with 100 μM Mn2+; pH 7.4
[1] = substrate: CSCC[C@H](N)C(=O)NCC(=O)N[C@@H](C)C(=O)N[C@@H](CCC(N)=O)C(=O)N[C@@H](Cc1ccccc1)C(=O)N[C@@H](CO)C(=O)N[C@@H](CCCCN)C(=O)N[C@H](C(=O)O)[C@@H](C)O
Text: (§1) A coupled-enzyme chromogenic assay was used to measure methionine aminopeptidase activity by monitoring the production of free methionine cleaved from specific peptide substrates containing methionine. […] Free methionine was oxidized with L-amino acid oxidase (AAO, Sigma Catalog No. A-9378) and horseradish peroxidase (HRP, Sigma Catalog No. P-8451). Oxidation by AAO of free methionine generates hydrogen peroxide (H2O2) which then reacts with HRP oxidizing 0-dianisidine (Sigma Catalog No. D-1954) or 10-acetyl-3,7-dihydrophenoxazine (Amplex Red, Molecular Probes). Assays were performed in 96-well microtiter plates. Enzyme preparations were diluted in assay buffer (50 mM HEPES, pH 7.4, 100 mM NaCl), and 10 μl of the enzymes were introduced into each well. A mixture (90 μl) of 0.1 mg/ml L-amino acid oxidase, 0.1 mg/ml of horseradish peroxidase, 0.1 mg/ml ortho-dianisidine, and 0.5 mM peptide substrate was added to each cell. The reactions were carried out at room temperature, and the absorbance at 450 nanometer (A450) was measured every 20 seconds over a period of twenty minutes using an automatic plate reader (Molecular Devices, Calif., USA). The rate in mOD/min, calculated for each well, was used to represent MetAP1 or MetAP2 activity. Under this assay condition, the methionine cleaved from peptide substrate by MetAP1 or MetAP2 was instantaneously oxidized to generate a final A450 readout. It was determined that 1 μM methionine generated a 2.25 mOD increase in the A450 readout.
(§2) MetAP2 using Mn^2+ as cofactor was studied to obtain kinetic constants on several peptide substrates. […] Enzyme kinetics was studied using the chromogenic assay to determine enzymatic activity as described in Example 3. […] These peptides were tested at a final concentration of 20, 40, 80, 160, 320, and 640 μM in the assay buffer (50 mM HEPES, pH 7.4, 100 mM NaCl). […] The initial rate of methionine cleavage was determined by measuring the A450 change as described above. Kinetic constants were calculated using Linewaver-Burk plots.

[2] = substrate: CSCC[C@H](N)C(=O)NCC(=O)N[C@@H](CO)C(=O)N[C@@H](CO)C(=O)N[C@@H](CCCCN)C(=O)N[C@@H](CO)C(=O)N[C@@H](CCCCN)C(=O)N1CCC[C@H]1C(=O)O
Text: as §1, §2

[3] = substrate: CSCC[C@H](N)C(=O)NCC(=O)N[C@@H](CC(N)=O)C(=O)N[C@@H](CC(C)C)C(=O)N[C@@H](CCCCN)C(=O)N[C@@H](CO)C(=O)N[C@H](C(=O)N[C@@H](C)C(=O)O)C(C)C
Text: as §1, §2

[4] = substrate: CSCC[C@H](N)C(=O)NCC(=O)N[C@@H](CCCCN)C(=O)N[C@H](C(=O)N[C@@H](CCCCN)C(=O)N[C@H](C(=O)NCC(=O)N[C@H](C(=O)N[C@@H](CC(N)=O)C(=O)NCC(=O)O)C(C)C)C(C)C)C(C)C
Text: as §1, §2

[5] = substrate: CSCC[C@H](N)C(=O)NCC(=O)N[C@@H](CCCCN)C(=O)N[C@H](C(=O)N[C@@H](CCCCN)C(=O)N[C@H](C(=O)O)C(C)C)C(C)C
Text: as §1, §2

[6] = substrate: CSCC[C@H](N)C(=O)NCC(=O)N[C@@H](CCCCN)C(=O)O
Text: as §1, §2

[7] = substrate: CSCC[C@H](N)C(=O)NCC(=O)N[C@@H](CCCCN)C(=O)N[C@H](C(=O)O)C(C)C
Text: as §1, §2

[8] = substrate: CSCC[C@H](N)C(=O)NCC(=O)N[C@@H](CCCCN)C(=O)N[C@H](C(=O)N[C@@H](CCCCN)C(=O)N[C@H](C(=O)NCC(=O)N[C@H](C(=O)N[C@@H](CC(N)=O)C(=O)NCC(=O)N[C@@H](Cc1ccccc1)C(=O)O)C(C)C)C(C)C)C(C)C
Text: as §1, §2

[9] = substrate: CSCC[C@H](N)C(=O)NCC(=O)N[C@@H](CC(N)=O)C(=O)N[C@@H](C)C(=O)N[C@@H](C)C(=O)N[C@@H](C)C(=O)N[C@@H](C)C(=O)N[C@@H](CCCCN)C(=O)O
Text: as §1, §2

[10] = substrate: CSCC[C@H](N)C(=O)N[C@@H](C)C(=O)N[C@@H](CO)C(=O)O
Text: as §1, §2

[11] = substrate: CSCC[C@H](N)C(=O)NCC(=O)N[C@@H](CCCCN)C(=O)N[C@H](C(=O)N[C@@H](CCCCN)C(=O)N[C@H](C(=O)NCC(=O)N[C@H](C(=O)N[C@@H](CC(N)=O)C(=O)O)C(C)C)C(C)C)C(C)C
Text: as §1, §2

[12] = substrate: CSCC[C@H](N)C(=O)NCC(=O)N[C@@H](CCCCN)C(=O)N[C@H](C(=O)N[C@@H](CCCCN)C(=O)O)C(C)C
Text: as §1, §2

B1: MetAP2 (Homo sapiens) (protein)
chain: MAGVEEVAASGSHLNGDLDPDDREEGAASTAEEAAKKKRRKKKKSKGPSAAGEQEPDKESGASVDEVARQLERSALEDKERDEDDEDGDGDGDGATGKKKKKKKKKRGPKVQTDPPSVPICDLYPNGVFPKGQECEYPPTQDGRTAAWRTTSEEKKALDQASEEIWNDFREAAEAHRQVRKYVMSWIKPGMTMIEICEKLEDCSRKLIKENGLNAGLAFPTGCSLNNCAAHYTPNAGDTTVLQYDDICKIDFGTHISGRIIDCAFTVTFNPKYDTLLKAVKDATNTGIKCAGIDVRLCDVGEAIQEVMESYEVEIDGKTYQVKPIRNLNGHSIGQYRIHAGKTVPIVKGGEATRMEEGEVYAIETFGSTGKGVVHDDMECSHYMKNFDVGHVPIRLPRTKHLLNVINENFGTLAFCRRWLDRLGESKYLMALKNLCDLGIVDPYPPLCDIKGSYTAQFEHTILLRPTCKEVVSRGDDY
notes: gp67 secretion signal of vector pAcGP67B (N); made in house; host or cells: baculovirus-infected Sf9 insect cells, secreted into medium
**Q.** Which results are given for B1?
**A.** Km [1]: 224.4 µM; kcat [1]: 4.87 s⁻¹; kcat/Km [1]: 21700 M⁻¹ s⁻¹; Km [2]: 233.1 µM; kcat [2]: 3.94 s⁻¹; kcat/Km [2]: 16700 M⁻¹ s⁻¹; Km [3]: 208.3 µM; kcat [3]: 4.87 s⁻¹; kcat/Km [3]: 23300 M⁻¹ s⁻¹; Km [4]: 163.6 µM; kcat [4]: 10.2 s⁻¹; kcat/Km [4]: 61700 M⁻¹ s⁻¹; Km [5]: 149.3 µM; kcat [5]: 8.53 s⁻¹; kcat/Km [5]: 56700 M⁻¹ s⁻¹; Km [6]: 757.6 µM; kcat [6]: 3.32 s⁻¹; kcat/Km [6]: 5000 M⁻¹ s⁻¹; Km [7]: 623.7 µM; kcat [7]: 6.7 s⁻¹; kcat/Km [7]: 10000 M⁻¹ s⁻¹; Km [8]: 131.3 µM; kcat [8]: 9.43 s⁻¹; kcat/Km [8]: 71700 M⁻¹ s⁻¹; Km [9]: 259.9 µM; kcat [9]: 3.78 s⁻¹; kcat/Km [9]: 15000 M⁻¹ s⁻¹; Km [10]: 211.5 µM; kcat [10]: 2.54 s⁻¹; kcat/Km [10]: 12000 M⁻¹ s⁻¹; Km [11]: 205.0 µM; kcat [11]: 10.2 s⁻¹; kcat/Km [11]: 50000 M⁻¹ s⁻¹; Km [12]: 188.1 µM; kcat [12]: 10.4 s⁻¹; kcat/Km [12]: 55000 M⁻¹ s⁻¹
